The source of these data is patent US11866760B2, “Microorganisms for the production of insect pheromones and related compounds” (Provivi, Inc., priority 2017, dated 2024).

One series relates to methyl palmitate. Briefly: HaFAR mutant library cultivation in 24 well plates in Y. lipolytica SPV603. Format: cell-based, Yarrowia lipolytica. The following applies: second FAR copy in SPV603, 24 well plates. As to the method: Four individual clones of positive integrants were tested. Cultivation was performed in 24 well plates. Briefly, 2 mL YPD was inoculated from patches of individual clones and incubated for 24 h at 28° C., 1000 rpm. After 24 h OD600 was measured and the cells were centrifuged at 1000 rpm (Table 23). The cell pellets were resuspended in 1 mL S2 media and 10 g/L methyl palmitate was added. The cells were incubated for 18 h at 28° C., 1000 rpm. Cultivations were stored at −20° C. until analyzed. Extraction and analysis was performed according to previously established standard protocols using GC-FID.
In a first round four individual isolate from each transformation was tested. Cultivation was performed in 24 well plates. 2 mL YPD was inoculated from patches of individual clones and incubated for 24 h at 28° C., 1000 rpm. After 24 h OD600 was measured and the cells were centrifuged at 1000 rpm. The cell pellets were resuspended in 1 mL S2 media and 10 g/L methyl palmitate was added. The cells were incubated for 24 h at 28° C., 1000 rpm. Cultivations were stored at −20° C. until analyzed. Next, four clones of the best performing positive integrant were tested. Cultivation was performed in 24 well plates. 2 mL YPD was inoculated from patches of individual clones and incubated for ˜28 h at 28° C., 1000 rpm. After 28 h OD600 was measured and the cells were centrifuged at 1000 rpm. The cell pellets were resuspended in 1 mL S2 media and 10 g/L methyl palmitate was added. The cells were incubated for 18 h at 28° C., 1000 rpm. Cultivations were stored at −20° C. until analyzed.
Cell pellets were resuspended with 500 μL 5% NaOH (in methanol) then heated for 1 hour at 85° C. Samples were cooled down and then acidified by adding 400 μL 5N HCl. Next, 500 μL chloroform (containing 1 mM C17:0 heptadecanoate internal standard) were added to samples. Samples were mixed vigorously then spun down for 2 minutes at 13,000 RPM using a table top centrifuge. 450 μL chloroform were transferred to a new vial then evaporated at 85° C. for ˜15 minutes. Samples were then resuspended in 50 μL BSTFA (and were now ready for GC analysis). After analysis of the fatty alcohols samples were diluted ˜1:10 and rerun on the GC to improve peak separation of the fatty acid peaks.
All quantifications were based on the concentration of the internal standard. The concentration of the internal standard C17ME is 1 mM. The final concentration of fatty alcohols as well as fatty acids were calculated based on the effective carbon number compared to the internal standard.

The subject of the next series is S. cerevisiae ΔOLE1. In words: ΔOLE1 growth complementation assay without UFA. Format: cell-based, Saccharomyces cerevisiae. The source says:
S. cerevisiae ΔOLE1 (MATA OLE1::LEU2 ura3-52 his4) was used as an expression host. A synthetic expression cassette termed pOLE1 (FIG. 10, SEQ ID NO: 4) which comprises the OLE1 promoter region (SEQ ID NOs: 5 and 6), nucleotides encoding for 27 N-terminal amino acids of the OLE1 leader sequence (SEQ ID NO: 7), and a VPS13 terminator sequence (SEQ ID NO: 8) was created, and cloned into pESC-URA vector in between SacI and EcoRI sites. To test the functionality of the pOLE1 cassette, Dasher GFP synthon was inserted in between SpeI and NotI sites to create pOLE1-GFP plasmid. Competent ΔOLE1 was transformed with pOLE1-GFP, and plated on CM-Ura glucose agar plate (Teknova) containing UFA (20 mm CM-URA glucose agar plate was coated with 100 μL CM-Ura glucose medium containing 1% tergitol, and 3 μL palmitoleic acid). […] Validation of ΔOLE1 complementation was performed by restoring OLE1 activity. Specifically, native S. cerevisiae OLE1 synthon was inserted into pOLE1 cassette devoid of the leader sequence to create pOLE1-OLE1 plasmid. After transformation of ΔOLE1, and selection on CM-Ura glucose agar containing UFA, single colonies were patched onto YPD and CM-Ura glucose without UFA. After incubation at 30° C. for 5 days, growth was observed (FIG. 11A-FIG. 11E). As expected, Dasher GFP expression could not complement ΔOLE1 growth without UFA (FIG. 11A-FIG. 11E). DNA sequences which encode for desaturase variants were synthesized (to include nucleotide changes which remove restriction sites used for cloning purposes), and cloned into pOLE1 using SpeI-NotI sites (Genscript, SEQ ID NOs: 9-13). Complementation assay of ΔOLE1 with insect desaturases were performed in the same way as with OLE1 desaturase.

Another series deals with palmitic acid. In words: in vivo bioconversion assay of desaturases in C. tropicalis SPV053. Type of series: cell-based, Candida tropicalis. How it is done: Functional expression of the heterologous desaturases was characterized by a series of in vivo bioconversion experiments. C. tropicalis SPV053 derived stains expressing insect desaturases were cultured in rich (YPD) or defined (CM glucose) media supplemented with ethanol (for induction) and saturated acid substrates (palmitic acid, methyl palmitate, methyl myristate). Small scale (2 ml) cultures were cultivated for a total of 72 hours in 24 deep well plates with substrate added after the initial 24 hours.
Positive isolates were re-patched onto YPD+300 μg/ml Zeocin and grown overnight and then stored at 4° C. Strains were inoculated from patch plates into 2 ml of YPD in 24 deep well plates (square well, pyramid bottom). Three positive clones were inoculated for each desaturase variant and the mCherry expressing control strain. Deep well plates were incubated at 30° C., 1000 rpm, and 80% humidity in the Infors HT Multitron Pro plate shaker for 24 hrs. After 24 hrs of incubation, cultures were split into equal 1 ml volumes to make two sets of identical plates. Both sets of plates were pelleted by centrifugation at 500×g. One set of plates was resuspended in 2 ml of YPD+0.3% (v/v) ethanol and the second set was resuspended in 2 ml of CM glucose+0.3% ethanol. Ethanol was added at this stage to induce recombinant enzyme expression from the ICL promoter. Cultures were incubated for another 24 hours under the same conditions before 300 mg/L palmitic acid was added to cultures from a 90 g/L stock solution in ethanol. The result was the addition of a fresh 0.3% ethanol in conjunction with the palmitic acid. A subset of strains was also cultured without palmitic acid addition. These cultures had 0.3% ethanol added instead. All cultures were incubated for an additional 24 hrs before a final addition of 0.3% ethanol. After another 24 hr period of incubation, 1.5 ml of each culture was harvested in 1.7 ml microcentrifuge tubes and pelleted. Supernatant was saved in fresh tubes and pellets were processed as described below. A subset of supernatant samples was also extracted to look for free acid in the extracellular medium.
The mCherry control and confirmed positive variants were rescreened using both palmitic acid and methyl palmitate as substrates. The culturing was conducted as described above with equimolar (1.17 mM) amounts of substrate added from ethanol stock solutions (methyl palmitate 94 g/L stock, 313 mg/L final concentration). The same protocol was also repeated with the full panel of strains using an 84 g/L stock of methyl myristate (C14:0). The final concentration of substrate was again 1.17 mM.
The in vivo bioconversion assay was scaled up for confirmation of (Z)-11-hexadecenoic acid synthesis. 2 ml YPD seed cultures of strains SPV0302, SPV0303, and SPV0304 (mCherry), […], SPV0305, and SPV0306 (A. transitella Z11 desaturase), and SPV0307, SPV0308, and SPV0309 (H. zea Z11 desaturase) were grown overnight at 30° C., 1000 rpm, 80% humidity in the Infors HT Multitron plate shaker. 200 μl of overnight culture from each of the three clonal isolates was pooled and inoculated into a single 125 ml baffled flask containing 20 ml YPD. The resulting three flasks were grown for 24 hrs at 30° C. and 250 rpm (Infors Flask shaker). Cultures were pelleted by centrifugation at 500×g and resuspended in 20 ml of YPD+0.3% (v/v) ethanol and returned to 125 ml baffled shake flasks. Cultures were incubated for an additional 24 hours before addition of 300 mg/L palmitic acid in a 90 g/L stock in ethanol (221 μl per flask). After 24 hours of incubation another 0.3% (v/v) ethanol (221 μl) was added to each flask for sustained induction. Flasks were incubated for an additional 24 hours before cells were harvested for FAME analysis and DMDS derivatization.
Total lipid composition as well as the (Z)-11-hexadecenoic acid quantification was based on modified procedures by Moss et al. (1982) and Yousuf et al (2010). […]

Where [1] appears, read: SPV053, supplementation not stated.

B1: HaFAR (S60A) (protein)
chain: MVVLTSKETKPSVAEFYAGKSVFITGGTGFLGKVFIEKLLYSCPDIENIYMLIREKKGLAVSERIKQFLDDPLFTRLKDKRPADLEKIVLIPGDITAPDLGINSENEKMLIEKVSVIIHSAATVKFNEPLPTAWKINVEGTRMMLALSRRMKRIEVFIHISTAYTNTNREVVDEILYPAPADIDQVHQYVKDGISEEDTEKILNGRPNTYTFTKALTEHLVAENQAYVPTIIVRPSVVAAIKDEPLKGWLGNWFGATGLTVFTAKGLNRVIYGHSSYIVDLIPVDYVANLVIAAGAKSSKSTELKVYNCCSSSCNPVTIGTLMSMFADDAIKQKSYAMPLPGWYIFTKYKWLVLLLTFLFQVIPAYVTDLSRHLIGKSPRYIKLQSLVNQTRSSIDFFTNHSWVMKADRVRELYASLSPADKYLFPCDPTDINWTHYIQDYCWGVRHFLEKKSYE
For the molecule B1, the “Z11-16OH titers compared to the HaFAR double copy strain” value with methyl palmitate was “neutral or showed slight increases”.

B2: HaFAR (S298A) (protein)
chain: MVVLTSKETKPSVAEFYAGKSVFITGGTGFLGKVFIEKLLYSCPDIENIYMLIREKKGLSVSERIKQFLDDPLFTRLKDKRPADLEKIVLIPGDITAPDLGINSENEKMLIEKVSVIIHSAATVKFNEPLPTAWKINVEGTRMMLALSRRMKRIEVFIHISTAYTNTNREVVDEILYPAPADIDQVHQYVKDGISEEDTEKILNGRPNTYTFTKALTEHLVAENQAYVPTIIVRPSVVAAIKDEPLKGWLGNWFGATGLTVFTAKGLNRVIYGHSSYIVDLIPVDYVANLVIAAGAKASKSTELKVYNCCSSSCNPVTIGTLMSMFADDAIKQKSYAMPLPGWYIFTKYKWLVLLLTFLFQVIPAYVTDLSRHLIGKSPRYIKLQSLVNQTRSSIDFFTNHSWVMKADRVRELYASLSPADKYLFPCDPTDINWTHYIQDYCWGVRHFLEKKSYE
With B2, the “Z11-16OH titers compared to the HaFAR double copy strain” value with methyl palmitate is “neutral or showed slight increases”.

B3: HaFAR (S453A) (protein)
chain: MVVLTSKETKPSVAEFYAGKSVFITGGTGFLGKVFIEKLLYSCPDIENIYMLIREKKGLSVSERIKQFLDDPLFTRLKDKRPADLEKIVLIPGDITAPDLGINSENEKMLIEKVSVIIHSAATVKFNEPLPTAWKINVEGTRMMLALSRRMKRIEVFIHISTAYTNTNREVVDEILYPAPADIDQVHQYVKDGISEEDTEKILNGRPNTYTFTKALTEHLVAENQAYVPTIIVRPSVVAAIKDEPLKGWLGNWFGATGLTVFTAKGLNRVIYGHSSYIVDLIPVDYVANLVIAAGAKSSKSTELKVYNCCSSSCNPVTIGTLMSMFADDAIKQKSYAMPLPGWYIFTKYKWLVLLLTFLFQVIPAYVTDLSRHLIGKSPRYIKLQSLVNQTRSSIDFFTNHSWVMKADRVRELYASLSPADKYLFPCDPTDINWTHYIQDYCWGVRHFLEKKAYE
Regarding B3, the “Z11-16OH titers compared to the HaFAR double copy strain” value with methyl palmitate was “neutral or showed slight increases”.

B4: A. transitella desaturase: Amyelois transitella Z11 desaturase (JX964774) (protein, listed as Amyelois transitella)
chain: MVPNKGSSDVLSEHSEPQFTKLIAPQAGPRKYKIVYRNLLTFGYWHLSAVYGLYLCFTCAKWATILFAFFLYVIAEIGITGGAHRLWAHRTYKAKLPLEILLLIMNSIAFQDTAFTWARDHRLHHKYSDTDADPHNATRGFFYSHVGWLLVKKHPEVKARGKYLSLDDLKNNPLLKFQKKYAILVIGTLCFLMPTFVPVYFWGEGISTAWNINLLRYVMNLNMTFLVNSAAHIFGNKPYDKSIASVQNISVSLATFGEGFHNYHHTYPWDYRAAELGNNRLNMTTAFIDFFAWIGWAYDLKSVPQEAIAKRCAKTGDGTDMWGRKR
As for B4, the “rescue of ΔOLE1 growth without UFA” value with S. cerevisiae ΔOLE1 (minimal medium (CM-Ura glucose) agar plate) is “conferred growth without UFA”. The “rescue of ΔOLE1 growth without UFA” value in the series on S. cerevisiae ΔOLE1 (rich medium (YPD) agar plate) is given as “conferred growth without UFA”. Further, in the series on palmitic acid (SPV053), the “(Z)-11-hexadecenoic acid titer” value was “approximately 5.62 mg/L”. In the series on palmitic acid (SPV053, methyl myristate substrate), the “activity on myristoyl-CoA” value is reported as “some activity on myristoyl-CoA”. Moreover, in the series on palmitic acid (setting [1]), the “(Z)-9-hexadecenoic acid in C16-fatty acid composition” value is on record as 14.5%, the “(Z)-11-hexadecenoic acid in C16-fatty acid composition” value was determined as 30.0% and the “hexadecanoic acid in C16-fatty acid composition” value came out at 55.5%.
